Measurements reported in US12371456B2, “Proteins for the treatment of epithelial barrier function disorders” (Genevive, Inc., priority 2017, dated 2025).

Key:
[1] = system: HCT8 enterocytes and HT29-MTX goblet cells (epithelial monolayer) co-cultured with U937 monocytes; test: Co-culture trans-epithelial electrical resistance (TEER) assay, barrier disruption by heat killed E. coli; type: cell-based, human
Procedure: Assays were performed as described below in trans-well plates where co-cultures of multiple cell types were performed utilizing a permeable membrane to separate cells. In the apical (top) chamber, human colonic epithelial cells, consisting of a mixture of enterocytes and goblet cells, were cultured until cells obtained tight junction formation and barrier function capacity as assessed by measurement of trans-epithelial electrical resistance (TEER). In the basolateral chamber, monocytes were cultured separately. Epithelial cells were primed with inflammatory cytokines.
Cell culture. The HCT8 human enterocyte cell line (ATCC Cat. No. CCL-244) was maintained in RPMI-1640 medium supplemented with 10% fetal bovine serum, 100 IU/ml penicillin, 100 µg/ml streptomycin, 10 µg/ml gentamicin and 0.25 µg/ml amphotericin (cRPMI). HT29-MTX human goblet cells (Sigma-Aldrich (St. Louis, MO; Cat. No. 12040401) were maintained in DMEM medium with 10% fetal bovine serum, 100 IU/ml penicillin, 100 µg/ml streptomycin, 10 µg/ml gentamicin and 0.25 µg/ml amphotericin (cDMEM). Epithelial cells were passaged by trypsinization and were used between 5 and 15 passages following thawing from liquid nitrogen stocks. U937 monocytes (ATCC Cat. No. 700928) were maintained in cRPMI medium as a suspension culture, and split by dilution as needed to maintain cells between 5×10^5 and 2×10^6 cells/ml. U937 cells were used up to passage 18 following thawing from liquid nitrogen stocks.
Epithelial cell culture. A mixture of HCT8 enterocytes and HT29-MTX goblet cells were plated at a 9:1 ratio, respectively, in the apical chamber of the transwell plate as described previously (Berget et al., 2017, Int J Mol Sci, 18:1573; Beduneau et al., 2014, Eur J Pharm Biopharm, 87:290-298). […] Epithelial cells were trypsinized from culture flasks and viable cells determined by trypan blue counting. […]
Co-culture assay. […] Trans-epithelial electrical resistance (TEER) readings were measured after the IFN-γ treatment and were used as the pre-treatment TEER values. […]

[2] = system: DSS model of inflammatory bowel disease; test: DSS model: 4 KDa-FITC dextran translocation across the epithelial barrier; type: in vivo, C57BL/6 mice; conditions: 50 nmoles/kg i.p. b.i.d., 2.5% DSS 6 days; FIG. 6
Procedure: Eight-week old C57BL/6 mice were housed 5 animals were cage and given food and water ad libitum for 7 days. Following the 7-day acclimation period, treatments were initiated concurrently with addition of 2.5% DSS to the drinking water. […] The mice were treated with 2.5% dextran sodium sulfate (DSS) in their drinking water for 6 days. Treatments were continued with SG-14 or […]-GLP2 twice a day (b.i.d.) in the morning and evening (every 8 and 16 hr) with i.p. injections at 50 nmoles/kg. Fresh 2.5% DSS drinking water was prepared every 2 days. On day six, mice were fasted for four hours and then orally gavaged with 600 mg/kg 4 KDa dextran labeled with fluorescein isothiocyanate (FITC) [4 KDa-FITC]. One hour after the 4 KDa-FITC gavage mice were euthanized, blood was collected and FITC signal was measured in serum. […] Results are shown in FIG. 6, and are presented as mean SEM. The graph in FIG. 6 represents data pooled from the single experiment (n=10).

[3] = system: DSS model of inflammatory bowel disease; test: DSS model: body weight; type: in vivo, C57BL/6 mice; conditions: 50 nmoles/kg i.p. b.i.d., 2.5% DSS; FIG. 8
Procedure: (§1) Eight-week old C57BL/6 mice were housed 5 animals were cage and given food and water ad libitum for 7 days. Following the 7-day acclimation period, treatments were initiated concurrently with addition of 2.5% DSS to the drinking water. […] The mice were treated with 2.5% dextran sodium sulfate (DSS) in their drinking water for 6 days. Treatments were continued with SG-14 or […]-GLP2 twice a day (b.i.d.) in the morning and evening (every 8 and 16 hr) with i.p. injections at 50 nmoles/kg. Fresh 2.5% DSS drinking water was prepared every 2 days. Body weight was measured daily from mice included in the DSS model described in this Example. Percent change from starting weight on day 0 was determined for each mouse. […] The graph in FIG. 8 represents data pooled from the single experiment (n=10).

IL-10 = IL-10 production by monocytes in co-culture TEER assay (Luminex); type: cell-based, human; conditions: pre-incubated 6 hours prior to HK E. coli; FIG. 3
Procedure: IL-10 production was measured in tissue culture supernatant from the basolateral chamber of the co-culture TEER assay described in Example 2 containing monocytes. Luminex analysis was performed to determine the pg/ml concentration of IL-10 produced by the monocytes. IL-10 production in untreated cells and cells pre-incubated with SG-14 for 6 hours prior to HK E. coli treatment were normalized to pg/ml concentrations elicited by HK E. coli which was set to 1.0. Pre-incubation with SG-14 increased IL-10 production to 1.21. The graph in FIG. 3 represents data pooled from two individual experiments (n=6).

IL-23 = IL-23 production by monocytes in co-culture TEER assay (Luminex); type: cell-based, human; conditions: pre-incubated 6 hours prior to HK E. coli; p=0.80; FIG. 2B
Procedure: Production of the pro-inflammatory cytokines TNF-α and IL-23 by monocytes was measured in the tissue culture supernatant from the basolateral chamber of the co-culture TEER assay performed in Example 2. Following TEER readings, the supernatants were centrifuged at 10,000 g for 5 minutes at 4° C. to remove cell debris. Luminex analysis was performed according to the manufacturer's instructions (Magpix instrument and xPonent software version 4.2; Luminex Corporation (Austin, TX)). Luminex analysis was performed to determine the pg/ml concentration of TNF-α and IL-23 produced by monocytes. Luminex analysis utilizes a bead-based system for quantification of multiple cytokines from a single sample. Like an ELISA, Luminex beads are coated with a capture antibody, and incubation with samples allows the target to bind to the capture antibody. Beads are washed and incubated with a fluorescently labeled detection antibody for quantification of bound target. Cytometric analysis is used to differentiate bead populations, which are loaded with differential fluorescent dyes, and to quantify cytokine levels by measuring detection antibody signal. TNF-α production in untreated cells and cells pre-incubated with SG-14 for 6 hours prior to HK E. coli treatment were normalized to pg/ml concentrations elicited by HK E. coli which was set to 1.0. […]

[4] = system: DSS model of inflammatory bowel disease; test: DSS model: colon length and colon weight to length ratio; type: in vivo, C57BL/6 mice; conditions: DSS treated mice
Procedure: as §1, with “Colon length” for “Body weight”, “in” for “daily from”, “Example 7.” for “this Example. Percent change from starting weight on day 0 was determined for each mouse.”, “graphs” for “graph”, “10 and FIG. 11 represent” for “8 represents”

[5] = system: LPS binding protein (LBP); test: DSS model: LPS binding protein (LBP) in serum by ELISA; type: in vivo, C57BL/6 mice; conditions: 50 nmoles/kg i.p. b.i.d., 2.5% DSS; FIG. 7
Procedure: Eight-week old C57BL/6 mice were housed 5 animals were cage and given food and water ad libitum for 7 days. Following the 7-day acclimation period, treatments were initiated concurrently with addition of 2.5% DSS to the drinking water. […] The mice were treated with 2.5% dextran sodium sulfate (DSS) in their drinking water for 6 days. Treatments were continued with SG-14 or Gly2-GLP2 twice a day (b.i.d.) in the morning and evening (every 8 and 16 hr) with i.p. injections at 50 nmoles/kg. Fresh 2.5% DSS drinking water was prepared every 2 days.
SG-14 was also assessed for its effects on the levels of LPS binding protein (LBP) in the blood of the DSS animal with and without SG-14 administration. LPS binding protein (LBP), which has been linked to clinical disease activity in subjects with inflammatory bowel disease, was also measured by ELISA in the serum of mice tested in the DSS model described in Example 7. […] Results are shown in FIG. 7, and are presented as mean f SEM. The graph in FIG. 7 represents data pooled from the single experiment (n=10).

B1: SG-14: Eubacterium eligens protein comprising SEQ ID NO:3; tested form expressed in E. coli, with exogenous GPLG at N-terminus and PHRD at C-terminus (protein)
chain: GCARNSTSTTTASGGETTITSAITKEDTDVTHADDAENYRVSITGDFTVTSDTSDGVTQSGSVYTITKAGEYTVTGLLSEGQLIVDAGNENEVTIVLNGTSITCSSGSPIYVKNASEVKIKSEENSFNEVIDNRNEATEDSSDDAGNAAIYATCDLKLVGKGALVVTGNYNNGIQSKDDLSIKNVIVKVTAVNNAVKVNDAVDIESGNIIAISAKGDGIKTSNSSISNKGNQKGIVTITSGNIDIYAACDGIDASYGADISGDGNLNIYTDTYSEYSEEVTSSGSSSGTSSGRDSSANKSASANTVSYVATSDTIANAPSGFGGGNMGSGNAPDMSNGNAPNMNGSSDRNKTGGNRPGMPGDFNESGNSSGQSYSTKGIKAESEINISGFTINICSTDDGIHANSDSGVLETGEDGKGTIVINGGSITISSGDDGMHADKQLDVNDGYINVVTSYEGLEAMTINLNGGKIYVYATDDGINACTGDGKTSPIVNVTGGYIDVTTTSGDTDGIDSNGNYVQTGGFVLVKGGSSSGNVSGSIDVDGTVTITGGTCVALGGVCETPVNSANAYVLGSVSFSSGSYSLKDSSGNEVISFTVDGSFSNGWICSDTLTTGSSYTLYRGADSIADWTQE
modifications: N-terminal GPLG and C-terminal PHRD
TEER of epithelial cell barrier (percent of untreated) ([1]; SG-14 1 pg/ml (40 nM) added 1 hour (FIG. 1A; text also says 30 minutes) before HK E. coli, HK E. coli alone 70.0%): 72.2%
TEER of epithelial cell barrier (percent of untreated) ([1]; SG-14 1 pg/ml (40 nM) pre-incubated 6 hours before HK E. coli (FIG. 1B), without SG-14 71.4%): 78.7%
4 KDa-FITC dextran in serum vs DSS mice treated with vehicle [2]: significant reduction
Magnitude of 4 KDa-FITC dextran translocation vs Gly2-GLP2 [2]: even lower than the positive control
Body weight (percent change from day 0) vs vehicle treated DSS mice [3]: significantly improved body weight
IL-10 production normalized to HK E. coli (set to 1.0) (IL-10): 1.21
IL-23 production normalized to HK E. coli (set to 1.0) (IL-23): 1.1
Colon length ([4]; FIG. 10): prevented colon shortening
Ratio between colon weight and length ([4]; FIG. 11): significant reduction
Serum LBP concentration vs DSS mice treated with vehicle [5]: significant reduction
Serum LBP concentration vs control peptide Gly2-GLP2 [5]: greater impact on LBP concentration
